EC50 data for one substance are collected here from publication PMC8041869.

This assay deals with SARS-CoV-2 S-protein S1 subunit (SARS-CoV-2). The experiment in a line: ELISA.

For orientation: EC50 means the midpoint of the concentration-response curve. Higher therefore signals a need for much substance. In turn, “human ACE2 extracellular domain, wildtype, Fc-tagged dimeric form (from UniProt Q9BYF1-1 18-615) (Fc fusion)” returned an EC50 of 10.4 nM.
